Measured values: the supplement of paper PMC10126150
± gives the standard deviation of the averaged measurements.

tested on: ATP; assay: switch fluorescence ratio, 500 uM ATP over buffer (Cy3 cluster intensity, sum of 5 cycles each) (fold (ratio)); higher = stronger signal-on switching upon ATP binding; sequences stand for … in TCGTCGGCAGCGTCAGATGTGTATAAGAGACAGTTTTTTTTTTTTTTTTTTTTTTTTT…TC; details: aptamer strand: ATP DNA aptamer (quencher-CACCTGGGGGAGTATTGCGGAGGAAGG + anchor), 100 nM annealed; ATP concentration: 500 uM
Method in brief: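 Cy3-labelled switching-strand clusters on a modified Illumina MiSeq flow-cell were annealed to 100 nM quencher-labelled ATP aptamer, imaged in selection buffer, then imaged after 15 min with 500 uM ATP at 22 °C. Five buffer/ATP cycles ran, with NaOH stripping and re-annealing between them. The fluorescence ratio is summed target-cycle over summed buffer-cycle Cy3 intensity per cluster, averaged per switch-domain sequence. Clusters outside 100-1000 RFU were excluded.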
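Note: ATP exposure 15 min at 22 °C before imaging.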

| Sequence | switch fluorescence ratio |
| --- | --- |
| TGACTATT | 0.9948 ± 0.004 |
| TGACTCGGGC | 0.993 ± 0.022 |
| TGACTGGGTT | 1.02 ± 0.047 |
| TGACTTGGGT | 0.991 ± 0.01 |
| TGACTTTCGC | 1.06 ± 0.028 |
| TGACTTTTTA | 0.9933 ± 0.0075 |
| TGAGAAATGG | 1.02 ± 0.036 |
| TGAGAAGGAA | 1.033 ± 0.0093 |
| TGAGACATGC | 0.994 ± 0.038 |
| TGAGACTGGG | 0.993 ± 0.02 |
| TGAGACTGGT | 0.999 ± 0.023 |
| TGAGAGCTGA | 0.9825 ± 0.0063 |
| TGAGAGCTGG | 0.98517 ± 0.00094 |
| TGAGAGGGTG | 1.04 ± 0.041 |
| TGAGAGGTTA | 1.04 ± 0.013 |
| TGAGATAGAG | 0.975 ± 0.018 |
| TGAGATTAGT | 1.01 ± 0.026 |
| TGAGCACAGG | 1.455 ± 0.0091 |
| TGAGCCGCGG | 1.004 ± 0.0095 |
| TGAGCTGGTA | 0.981 ± 0.034 |
| TGAGCTTAGA | 1.02 ± 0.054 |
| TGAGGAAAAG | 1.006 ± 0.0065 |
| TGAGGAAAGG | 1.17 ± 0.25 |
| TGAGGAAGGC | 0.992 ± 0.039 |
| TGAGGACAGT | 1 ± 0.018 |

| Sequence | switch fluorescence ratio |
| --- | --- |
| TGAGGCACGG | 1.05 ± 0.056 |
| TGAGGCAGAG | 1.06 ± 0.015 |
| TGAGGGCGAA | 0.984 ± 0.01 |
| TGAGGGGAAG | 0.986 ± 0.021 |
| TGAGGGGAAT | 1 ± 0.012 |
| TGAGGGGCGG | 0.998 ± 0.039 |
| TGAGGGGCTT | 1 ± 0.073 |
| TGAGGGGGGG | 0.999 ± 0.034 |
| TGAGGGGT | 0.958 ± 0.027 |
| TGAGGGGTTT | 0.992 ± 0.015 |
| TGAGGGTCGG | 0.972 ± 0.041 |
| TGAGGTACGG | 1.01 ± 0.029 |
| TGAGGTAGCG | 0.981 ± 0.034 |
| TGAGGTGTTT | 0.992 ± 0.023 |
| TGAGGTTAGT | 1.09 ± 0.19 |
| TGAGGTTGAG | 1.03 ± 0.059 |
| TGAGTAAAGC | 1.03 ± 0.062 |
| TGAGTACTGA | 1.02 ± 0.024 |
| TGAGTAGATA | 1.01 ± 0.018 |
| TGAGTATAGG | 1.009 ± 0.003 |
| TGAGTATTTA | 0.993 ± 0.057 |
| TGAGTCACCT | 1.16 ± 0.037 |
| TGAGTCTAG | 0.997 ± 0.038 |
| TGAGTCTTAA | 1.01 ± 0.027 |
| TGAGTGATTG | 1.04 ± 0.052 |

| Sequence | switch fluorescence ratio |
| --- | --- |
| TGAGTGCAAA | 0.9933 ± 0.0023 |
| TGAGTGCCTA | 0.973 ± 0.047 |
| TGAGTGCTGT | 0.968 ± 0.02 |
| TGAGTGGGAG | 0.998 ± 0.021 |
| TGAGTGGGTT | 0.975 ± 0.031 |
| TGAGTGTGAG | 0.985 ± 0.035 |
| TGAGTTAAGG | 0.986 ± 0.012 |
| TGAGTTAGAG | 1.02 ± 0.026 |
| TGAGTTAGTT | 1.01 ± 0.016 |
| TGAGTTATGG | 0.968 ± 0.03 |
| TGAGTTGACT | 1 ± 0.015 |
| TGAGTTGATT | 1.01 ± 0.069 |
| TGATAAAGTT | 1.03 ± 0.034 |
| TGATAACTGG | 0.9745 ± 0.0064 |
| TGATAATAGG | 0.989 ± 0.021 |
| TGATAATGGG | 0.982 ± 0.036 |
| TGATACTGCT | 0.961 ± 0.035 |
| TGATAGGTGG | 1 ± 0.028 |
| TGATATGTGG | 1.01 ± 0.038 |
| TGATATGTTT | 1.006 ± 0.002 |
| TGATATTCGA | 0.997 ± 0.012 |
| TGATATTTTG | 1 ± 0.016 |
| TGATCAAGTG | 0.99 ± 0.049 |
| TGATCGGATA | 1 ± 0.04 |
| TGATGATCC | 1.01 ± 0.042 |

| Sequence | switch fluorescence ratio |
| --- | --- |
| TGATGATGGG | 0.985 ± 0.038 |
| TGATGCAGTT | 1.01 ± 0.018 |
| TGATGCCGAA | 1.022 ± 0.0034 |
| TGATGCTGTA | 0.977 ± 0.063 |
| TGATGGACGG | 1 ± 0.022 |
| TGATGGAGGG | 0.997 ± 0.026 |
| TGATGGGAGC | 0.982 ± 0.014 |
| TGATGGGGG | 0.981 ± 0.016 |
| TGATGGGGTC | 0.991 ± 0.013 |
| TGATGTCTAG | 0.967 ± 0.021 |
| TGATGTTAGA | 1.003 ± 0.009 |
| TGATGTTTTT | 1.01 ± 0.024 |
| TGATTAATGA | 0.996 ± 0.034 |
| TGATTAATTT | 0.984 ± 0.011 |
| TGATTACTCA | 1.03 ± 0.021 |
| TGATTAGGGC | 1.01 ± 0.017 |
| TGATTATGGA | 0.995 ± 0.045 |
| TGATTATTTT | 0.991 ± 0.016 |
| TGATTCAGAG | 0.992 ± 0.029 |
| TGATTCATGA | 0.925 ± 0.033 |
| TGATTCATTG | 1.034 ± 0.01 |
| TGATTCCGGT | 0.992 ± 0.013 |
| TGATTCGGCG | 1.03 ± 0.069 |
| TGATTCGTAC | 1.03 ± 0.028 |
| TGATTCTCTT | 1 ± 0.027 |
